Test results from PMC4275594 (Nature Communications, 2014).

Columns and labels:
[1] = target: C-terminal 6xHis tagged IL-18Rβ extracellular domains (residues 15-356), for SPR (human) (UniProt O95256); assay: SPR; BIAcore 3000, 25 °C, C-terminal 6xHis IL-18Rβ immobilised (~100 RU) on an NTA sensor chip, un-tagged IL-18Rα saturated with 500 nM IL-18 as analyte in HBS-P
[2] = target: human IL-18 receptor alpha extracellular domain (residues 20-329), C-terminal 6xHis, wild type, from silkworm (human) (UniProt Q13478); assay: SPR; BIAcore 3000, 25 °C; C-terminal 6xHis IL-18Rα (wild type or mutant) immobilised at about 200 RU on a Ni-NTA sensor chip; IL-18 (wild type or mutant) injected as analyte in HBS-P (10 mM HEPES-Na pH 7.4, 150 mM NaCl, 0.01% P-20), 30 µl/min, 180 s association, 360 s dissociation; triplicate
[3] = target: human IL-18 receptor beta extracellular domain (residues 15-356), C-terminal 6xHis, wild type, from silkworm (human) (UniProt O95256); assay: SPR; BIAcore 3000, 25 °C; C-terminal 6xHis IL-18Rβ (wild type or mutant) immobilised at about 100 RU on a Ni-NTA sensor chip; un-tagged IL-18Rα saturated with 500 nM IL-18 (preformed binary complex) injected as analyte in HBS-P; triplicate
[4] = target: T1, preformed binary complex of IL-18 wild type and un-tagged IL-18Rα wild type extracellular domain (human, UniProt Q14116 37-193; Q13478 20-329); assay: as above; conditions: both partners purified
T1 construct: interleukin-18, human, mature IL-18 (residues 1-157); numbers count on: the mature protein; IL-18 receptor alpha, human, extracellular domains, residues 20-329 of NM_003855; also called IL-18 WT/IL-18Rα WT complex; IL-18/IL-18Rα; source: IL-18: E. coli BL21(DE3), purified; IL-18Rα: silkworm larvae haemolymph, purified; un-tagged IL-18Rα saturated with 500 nM IL-18

[5] = target: T2, IL-18 WT/IL-18Rα WT complex (SPR analyte) (human, UniProt Q14116 37-193; Q13478 20-329); assay: SPR; BIAcore 3000, 25 °C, C-terminal 6xHis IL-18Rβ immobilised (~100 RU) on an NTA sensor chip, un-tagged IL-18Rα saturated with 500 nM IL-18 as analyte in HBS-P; conditions: both partners purified
T2 construct: human interleukin-18, mature IL-18 (residues 1-157); numbers count on: the mature protein; human IL-18 receptor α, extracellular domains, residues 20-329 of NM_003855, printed as un-tagged; also called IL-18/IL-18Rα binary complex; IL-18 WT(control); source: IL-18: E. coli BL21(DE3), purified; IL-18Rα: silkworm larvae haemolymph, purified; un-tagged IL-18Rα saturated with 500 nM IL-18

human IL-18 receptor alpha extracellular domain (residues 20-329), C-terminal 6xHis, wild type, from silkworm (human), sequence (Q13478 20-329): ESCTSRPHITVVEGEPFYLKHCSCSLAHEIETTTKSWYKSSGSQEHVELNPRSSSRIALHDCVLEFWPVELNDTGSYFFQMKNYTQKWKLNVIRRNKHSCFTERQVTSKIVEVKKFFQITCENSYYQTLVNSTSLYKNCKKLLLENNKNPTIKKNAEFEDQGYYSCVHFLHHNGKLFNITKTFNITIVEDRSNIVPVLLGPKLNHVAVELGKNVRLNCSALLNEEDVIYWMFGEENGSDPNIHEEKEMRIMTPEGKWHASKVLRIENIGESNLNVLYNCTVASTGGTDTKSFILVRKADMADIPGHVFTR

IL-18 D110A/IL-18Rα WT complex (SPR analyte) (from UniProt Q13478 20-329)
Kd [1]: 56 nM

IL-18 G145A/IL-18Rα WT complex (SPR analyte) (from UniProt Q13478 20-329)
Kd [1]: 28 nM

IL-18 R147A/IL-18Rα WT complex (SPR analyte) (from UniProt Q13478 20-329)
Kd [1]: 57 nM

human interleukin-18, mature, D110A (ligand)
Kd [2]: 23 nM | kon [2]: 106000 M⁻¹ s⁻¹

human interleukin-18, mature, G108A (ligand)
Kd [2]: 184 nM | kon [2]: 52000 M⁻¹ s⁻¹

human interleukin-18, mature, G145A (ligand)
Kd [2]: 57 nM | kon [2]: 59000 M⁻¹ s⁻¹

human interleukin-18, mature, H109A (ligand)
Kd [2]: 48 nM | kon [2]: 62000 M⁻¹ s⁻¹

human interleukin-18, mature, K79A (ligand)
Kd [2]: 55 nM | kon [2]: 76000 M⁻¹ s⁻¹

human interleukin-18, mature, K112A (ligand)
Kd [2]: 51 nM | kon [2]: 64000 M⁻¹ s⁻¹

human interleukin-18, mature, M150A (ligand)
Kd [2]: 59 nM | kon [2]: 57000 M⁻¹ s⁻¹

human interleukin-18, mature, R147A (ligand)
Kd [2]: 67 nM | kon [2]: 68000 M⁻¹ s⁻¹

preformed binary complex of IL-18 K79A and un-tagged IL-18Rα wild type extracellular domain (from UniProt Q13478 20-329)
Kd [3]: 13 nM | kon [3]: 13000 M⁻¹ s⁻¹

preformed binary complex of IL-18 K84A and un-tagged IL-18Rα wild type extracellular domain (from UniProt Q13478 20-329)
Kd [3]: 18 nM | kon [3]: 10000 M⁻¹ s⁻¹

preformed binary complex of IL-18 R147A and un-tagged IL-18Rα wild type extracellular domain (from UniProt Q13478 20-329)
kon [3]: 69000 M⁻¹ s⁻¹

B1: human IL-18 receptor beta extracellular domain (residues 15-356), C-terminal 6xHis, E210A (receptor, UniProt O95256-1 15-356, looked up)
chain: ERIKGFNISGCSTKKLLWTYSTRSEEEFVLFCDLPEPQKSHFCHRNRLSPKQVPEHLPFMGSNDLSDVQWYQQPSNGDPLEDIRKSYPHIIQDKCTLHFLTPGVNNSGSYICRPKMIKSPYDVACCVKMILEVKPQTNASCEYSASHKQDLLLGSTGSISCPSLSCQSDAQSPAVTWYKNGKLLSVERSNRIVVDAVYDYHQGTYVCDYTQSDTVSSWTVRAVVQVRTIVGDTKLKPDILDPVEDTLEVELGKPLTISCKARFGFERVFNPVIKWYIKDSDLEWEVSVPEAKSIKSTLKDEIIERNIILEKVTQRDLRRKFVCFVQNSIGNTTQSVQLKEKR
notes: IL-18 receptor beta, human, extracellular domains, residues 15-356 of NM_003853; also called IL-18Rβ E210A; source: silkworm (B. mori) larvae, BmNPV bacmid, haemolymph, purified (ion exchange, Ni-NTA, gel filtration); not shown: 6xHis, C-terminal, kept
kon [4]: 71000 M⁻¹ s⁻¹

B2: human IL-18 receptor beta extracellular domain (residues 15-356), C-terminal 6xHis, S169A-T170A (receptor, UniProt O95256-1 15-356, looked up)
chain: ERIKGFNISGCSTKKLLWTYSTRSEEEFVLFCDLPEPQKSHFCHRNRLSPKQVPEHLPFMGSNDLSDVQWYQQPSNGDPLEDIRKSYPHIIQDKCTLHFLTPGVNNSGSYICRPKMIKSPYDVACCVKMILEVKPQTNASCEYSASHKQDLLLGAAGSISCPSLSCQSDAQSPAVTWYKNGKLLSVERSNRIVVDEVYDYHQGTYVCDYTQSDTVSSWTVRAVVQVRTIVGDTKLKPDILDPVEDTLEVELGKPLTISCKARFGFERVFNPVIKWYIKDSDLEWEVSVPEAKSIKSTLKDEIIERNIILEKVTQRDLRRKFVCFVQNSIGNTTQSVQLKEKR
notes: IL-18 receptor beta, human, extracellular domains, residues 15-356 of NM_003853; also called IL-18RβS169A-T170A; source: silkworm (B. mori) larvae, BmNPV bacmid, haemolymph, purified (ion exchange, Ni-NTA, gel filtration); not shown: 6xHis, C-terminal, kept
Kd [4]: 77 nM | kon [4]: 68000 M⁻¹ s⁻¹

B3: human IL-18 receptor beta extracellular domain (residues 15-356), C-terminal 6xHis, L167A (receptor, UniProt O95256-1 15-356, looked up)
chain: ERIKGFNISGCSTKKLLWTYSTRSEEEFVLFCDLPEPQKSHFCHRNRLSPKQVPEHLPFMGSNDLSDVQWYQQPSNGDPLEDIRKSYPHIIQDKCTLHFLTPGVNNSGSYICRPKMIKSPYDVACCVKMILEVKPQTNASCEYSASHKQDLLAGSTGSISCPSLSCQSDAQSPAVTWYKNGKLLSVERSNRIVVDEVYDYHQGTYVCDYTQSDTVSSWTVRAVVQVRTIVGDTKLKPDILDPVEDTLEVELGKPLTISCKARFGFERVFNPVIKWYIKDSDLEWEVSVPEAKSIKSTLKDEIIERNIILEKVTQRDLRRKFVCFVQNSIGNTTQSVQLKEKR
notes: IL-18 receptor beta, human, extracellular domains, residues 15-356 of NM_003853; also called IL-18Rβ L167A; source: silkworm (B. mori) larvae, BmNPV bacmid, haemolymph, purified (ion exchange, Ni-NTA, gel filtration); not shown: 6xHis, C-terminal, kept
kon [4]: 76000 M⁻¹ s⁻¹

B4: IL-18Rβ K313A, C-terminal 6xHis tagged extracellular domains (residues 15-356), for SPR (domain or fragment, human, UniProt O95256-1 15-356, looked up)
chain: ERIKGFNISGCSTKKLLWTYSTRSEEEFVLFCDLPEPQKSHFCHRNRLSPKQVPEHLPFMGSNDLSDVQWYQQPSNGDPLEDIRKSYPHIIQDKCTLHFLTPGVNNSGSYICRPKMIKSPYDVACCVKMILEVKPQTNASCEYSASHKQDLLLGSTGSISCPSLSCQSDAQSPAVTWYKNGKLLSVERSNRIVVDEVYDYHQGTYVCDYTQSDTVSSWTVRAVVQVRTIVGDTKLKPDILDPVEDTLEVELGKPLTISCKARFGFERVFNPVIKWYIKDSDLEWEVSVPEAKSIKSTLADEIIERNIILEKVTQRDLRRKFVCFVQNSIGNTTQSVQLKEKR
notes: human IL-18 receptor β, extracellular domains, residues 15-356 of NM_003853; In the luciferase reporter assay the same mutation stood in full-length IL-18Rβ (pcDNA3.1+) expressed in HEK293 cells; source: silkworm (B. mori) larvae, BmNPV bacmid, haemolymph, purified as from Sf9; not shown: 6xHis, C-terminal, kept
Kd [5]: 109 nM

B5: human IL-18 receptor beta extracellular domain (residues 15-356), C-terminal 6xHis, Y214A (receptor, UniProt O95256-1 15-356, looked up)
chain: ERIKGFNISGCSTKKLLWTYSTRSEEEFVLFCDLPEPQKSHFCHRNRLSPKQVPEHLPFMGSNDLSDVQWYQQPSNGDPLEDIRKSYPHIIQDKCTLHFLTPGVNNSGSYICRPKMIKSPYDVACCVKMILEVKPQTNASCEYSASHKQDLLLGSTGSISCPSLSCQSDAQSPAVTWYKNGKLLSVERSNRIVVDEVYDAHQGTYVCDYTQSDTVSSWTVRAVVQVRTIVGDTKLKPDILDPVEDTLEVELGKPLTISCKARFGFERVFNPVIKWYIKDSDLEWEVSVPEAKSIKSTLKDEIIERNIILEKVTQRDLRRKFVCFVQNSIGNTTQSVQLKEKR
notes: IL-18 receptor beta, human, extracellular domains, residues 15-356 of NM_003853; also called IL-18Rβ Y214A; source: silkworm (B. mori) larvae, BmNPV bacmid, haemolymph, purified (ion exchange, Ni-NTA, gel filtration); not shown: 6xHis, C-terminal, kept
kon [4]: 97000 M⁻¹ s⁻¹

B6: human IL-18 receptor beta extracellular domain (residues 15-356), C-terminal 6xHis, K313A (receptor, UniProt O95256-1 15-356, looked up)
chain: ERIKGFNISGCSTKKLLWTYSTRSEEEFVLFCDLPEPQKSHFCHRNRLSPKQVPEHLPFMGSNDLSDVQWYQQPSNGDPLEDIRKSYPHIIQDKCTLHFLTPGVNNSGSYICRPKMIKSPYDVACCVKMILEVKPQTNASCEYSASHKQDLLLGSTGSISCPSLSCQSDAQSPAVTWYKNGKLLSVERSNRIVVDEVYDYHQGTYVCDYTQSDTVSSWTVRAVVQVRTIVGDTKLKPDILDPVEDTLEVELGKPLTISCKARFGFERVFNPVIKWYIKDSDLEWEVSVPEAKSIKSTLADEIIERNIILEKVTQRDLRRKFVCFVQNSIGNTTQSVQLKEKR
notes: IL-18 receptor beta, human, extracellular domains, residues 15-356 of NM_003853; also called IL-18Rβ K313A; source: silkworm (B. mori) larvae, BmNPV bacmid, haemolymph, purified (ion exchange, Ni-NTA, gel filtration); not shown: 6xHis, C-terminal, kept
kon [4]: 103000 M⁻¹ s⁻¹

B7: IL-18Rβ E210A, C-terminal 6xHis tagged extracellular domains (residues 15-356), for SPR (domain or fragment, human, UniProt O95256-1 15-356, looked up)
chain: ERIKGFNISGCSTKKLLWTYSTRSEEEFVLFCDLPEPQKSHFCHRNRLSPKQVPEHLPFMGSNDLSDVQWYQQPSNGDPLEDIRKSYPHIIQDKCTLHFLTPGVNNSGSYICRPKMIKSPYDVACCVKMILEVKPQTNASCEYSASHKQDLLLGSTGSISCPSLSCQSDAQSPAVTWYKNGKLLSVERSNRIVVDAVYDYHQGTYVCDYTQSDTVSSWTVRAVVQVRTIVGDTKLKPDILDPVEDTLEVELGKPLTISCKARFGFERVFNPVIKWYIKDSDLEWEVSVPEAKSIKSTLKDEIIERNIILEKVTQRDLRRKFVCFVQNSIGNTTQSVQLKEKR
notes: as for B4
Kd [5]: 327 nM

B8: IL-18Rβ Y214A, C-terminal 6xHis tagged extracellular domains (residues 15-356), for SPR (domain or fragment, human, UniProt O95256-1 15-356, looked up)
chain: ERIKGFNISGCSTKKLLWTYSTRSEEEFVLFCDLPEPQKSHFCHRNRLSPKQVPEHLPFMGSNDLSDVQWYQQPSNGDPLEDIRKSYPHIIQDKCTLHFLTPGVNNSGSYICRPKMIKSPYDVACCVKMILEVKPQTNASCEYSASHKQDLLLGSTGSISCPSLSCQSDAQSPAVTWYKNGKLLSVERSNRIVVDEVYDAHQGTYVCDYTQSDTVSSWTVRAVVQVRTIVGDTKLKPDILDPVEDTLEVELGKPLTISCKARFGFERVFNPVIKWYIKDSDLEWEVSVPEAKSIKSTLKDEIIERNIILEKVTQRDLRRKFVCFVQNSIGNTTQSVQLKEKR
notes: human IL-18 receptor β, extracellular domains, residues 15-356 of NM_003853; source: silkworm (B. mori) larvae, BmNPV bacmid, haemolymph, purified as from Sf9; not shown: 6xHis, C-terminal, kept
Kd [5]: 50 nM

B9: IL-18Rβ L167A, C-terminal 6xHis tagged extracellular domains (residues 15-356), for SPR (domain or fragment, human, UniProt O95256-1 15-356, looked up)
chain: ERIKGFNISGCSTKKLLWTYSTRSEEEFVLFCDLPEPQKSHFCHRNRLSPKQVPEHLPFMGSNDLSDVQWYQQPSNGDPLEDIRKSYPHIIQDKCTLHFLTPGVNNSGSYICRPKMIKSPYDVACCVKMILEVKPQTNASCEYSASHKQDLLAGSTGSISCPSLSCQSDAQSPAVTWYKNGKLLSVERSNRIVVDEVYDYHQGTYVCDYTQSDTVSSWTVRAVVQVRTIVGDTKLKPDILDPVEDTLEVELGKPLTISCKARFGFERVFNPVIKWYIKDSDLEWEVSVPEAKSIKSTLKDEIIERNIILEKVTQRDLRRKFVCFVQNSIGNTTQSVQLKEKR
notes: as for B8
Kd [5]: 33 nM
